Test results taken from paper PMC8244417.

Key:
[1] = biological target: TmZIP N-terminally fused to His10-GFP-TEV; experiment: SDS-PAGE of the IMAC-pure protein
[2] = biological target: TmZIP C-terminally fused to TEV-GFP-His10; experiment: SDS-PAGE of the IMAC-pure protein

Row | Substance | stoichiometry N [1] | stoichiometry N [2]
1 | TmZIP N-terminally fused to His10-GFP-TEV (natural protein) | 2 | –
2 | TmZIP C-terminally fused to TEV-GFP-His10 (natural protein) | – | 2
